Data as given in article PMC10212915, “An ancient metabolite damage-repair system sustains photosynthesis in plants” (Nature Communications, 2023).

Legend:
Assay in all cases: malachite green phosphate release assay
Assay type in all cases: biochemical, Arabidopsis thaliana
Conditions in all cases: MOPS-KOH pH 7.5, 100 mM KCl, 10 mM MgCl2, 25 °C
[1] = substrate: O=C(COP(=O)(O)O)[C@@H](O)[C@H](O)COP(=O)(O)O
Text: (§1) malachite green phosphate release assay on MBP-AtCbbYB

[2] = substrate: O=C(COP(=O)(O)O)[C@H](O)[C@H](O)COP(=O)(O)O
Text: as §1

[3] = substrate: O=C(COP(=O)(O)O)[C@@H](O)[C@H](O)COP(=O)(O)O; remark: listed apart in the source
Text: (§2) malachite green phosphate release assay on MBP-AtCbbYA

[4] = substrate: O=C(COP(=O)(O)O)[C@H](O)[C@H](O)COP(=O)(O)O; remark: listed apart in the source
Text: as §2

Row | Protein | Km [1] | kcat [1] | kcat/Km [1] | Km [2] | kcat [2] | kcat/Km [2] | Km [3] | kcat [3] | kcat/Km [3] | Km [4] | kcat [4] | kcat/Km [4]
1 | MBP-AtCbbYB (Arabidopsis thaliana) (protein) SKSRVSSPVSALPLRSLEALIFDCDGVILESENLHRQAYNDAFSHFDVRCPPSSSESLDWSLEFYDKFQNLVGGGKPKMRWYFKENGWPTSTIFDSPPQNDDDRAKLIDTLQDWKTERYKEIIKSGSVEPRPGVIRLMDEAKAAGKKLAVCSAATKSSVILCLENLIDIERFQGLDCFLAGDDVKEKKPDPSIYITAAEKLGVSVKDCLVVEDSVIGLQAATKAGMSCVITYTSSTSDQNFNDAIAVYPDLSNVKLKDLETLLQTIVTAA | 182 ± 30 µM | 0.54 ± 0.05 s⁻¹ | 3000 M⁻¹ s⁻¹ | 4840 ± 360 µM | 0.015 ± 0.002 s⁻¹ | 3.2 ± 0.4 M⁻¹ s⁻¹ | – | – | – | – | – | –
2 | MBP-AtCbbYA (Arabidopsis thaliana) (protein) CSASSSLTTLPSALLFDCDGVLVDTEKDGHRISFNDTFKERDLNVTWDVDLYGELLKIGGGKERMTAYFNKVGWPEKAPKDEAERKEFIAGLHKQKTELFMVLIEKKLLPLRPGVAKLVDQALTNGVKVAVCSTSNEKAVSAIVSCLLGPERAEKIKIFAGDVVPKKKPDPAIYNLAAETLGVDPSKCVVVEDSAIGLAAAKAAGMTCIVTKSGYTADEDFENADAVFDCIGDPPEERFDLAFCGSLLRKQFVS | – | – | – | – | – | – | 40 ± 1 µM | 2.13 ± 0.04 s⁻¹ | 53000 ± 2000 M⁻¹ s⁻¹ | 4310 ± 110 µM | 0.043 ± 0.009 s⁻¹ | 10 ± 2 M⁻¹ s⁻¹
